Source: patent US20080138847A1, “Bcl-2 family member and BH-3 only proteins for use in development of peptidomimetics” (priority 2004, published 2008)
“Also recorded” adds a separate entry of the source. Where no end group is shown, it is not given here.

T1: CED-9 protein (residues 1-251) (Caenorhabditis elegans, UniProt P41958)
T1 construct: made in house
T1 sequence (P41958 1-251): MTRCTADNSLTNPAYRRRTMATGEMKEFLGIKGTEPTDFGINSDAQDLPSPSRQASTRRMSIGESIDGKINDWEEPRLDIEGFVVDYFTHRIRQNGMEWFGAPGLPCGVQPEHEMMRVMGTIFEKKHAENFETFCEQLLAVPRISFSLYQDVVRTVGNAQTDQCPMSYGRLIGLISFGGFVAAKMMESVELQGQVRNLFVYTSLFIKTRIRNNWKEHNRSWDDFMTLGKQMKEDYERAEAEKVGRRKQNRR

T2: CED-4/CED-9 complex (Caenorhabditis elegans, UniProt P41958)
T2 sequence (P41958 1-251 limits assumed): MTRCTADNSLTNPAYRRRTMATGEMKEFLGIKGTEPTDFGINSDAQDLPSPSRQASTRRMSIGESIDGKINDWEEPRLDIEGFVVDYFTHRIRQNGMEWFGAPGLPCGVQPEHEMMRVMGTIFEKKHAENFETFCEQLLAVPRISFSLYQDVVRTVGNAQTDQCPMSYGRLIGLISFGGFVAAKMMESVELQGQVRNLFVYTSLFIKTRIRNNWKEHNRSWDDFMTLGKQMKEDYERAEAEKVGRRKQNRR

T3: CED-4 (Caenorhabditis elegans, UniProt P30429)
T3 sequence (P30429 1-549): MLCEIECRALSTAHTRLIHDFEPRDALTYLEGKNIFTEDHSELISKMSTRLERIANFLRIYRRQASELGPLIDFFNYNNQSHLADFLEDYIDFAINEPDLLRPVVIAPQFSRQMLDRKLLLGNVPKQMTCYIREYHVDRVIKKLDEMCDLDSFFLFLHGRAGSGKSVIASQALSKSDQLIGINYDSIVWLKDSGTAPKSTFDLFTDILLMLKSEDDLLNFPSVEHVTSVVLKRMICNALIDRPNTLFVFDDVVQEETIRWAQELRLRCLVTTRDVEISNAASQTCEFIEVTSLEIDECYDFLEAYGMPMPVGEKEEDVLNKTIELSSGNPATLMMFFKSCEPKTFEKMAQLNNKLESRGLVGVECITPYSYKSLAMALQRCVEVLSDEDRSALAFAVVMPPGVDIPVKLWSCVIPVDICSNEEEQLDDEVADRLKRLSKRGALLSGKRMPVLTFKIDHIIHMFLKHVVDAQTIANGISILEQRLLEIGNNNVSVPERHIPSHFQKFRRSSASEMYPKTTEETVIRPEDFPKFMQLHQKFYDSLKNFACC


Tests used:
[1] = biological target: T1, CED-9 protein (residues 1-251); assay: GST-EGL-1 fragment/mutant interaction with CED-9 (GST-mediated pull-down assay); format: binding, C. elegans; conditions: GST-EGL-1 fragments or mutants, in vitro
Method: This example describes the characterization of EGL-1/CED-9 interactions. To determine the mechanism of CED-9 recognition by EGL-1, the EGL-1/CED-9 interaction was characterized. Various fragments of the GST-EGL-1 protein were evaluated for their abilities to interact with the CED-9 protein (residues 1-251).
To further characterize EGL-1/CED-9 interactions, a number of missense mutations were introduced into EGL-1 and the ability of the resulting EGL-1 mutants to interact with CED-9 was determined.
This example describes the biochemical and functional analysis of EGL-1/CED-9 interactions. To corroborate the structural analysis, mutations on the interface residues of EGL-1 were examined for their potential to weaken or disrupt its binding to CED-9. Various mutant EGL-1 fragments were purified as fusion proteins with glutathione S-transferase (GST) and their interactions with CED-9 were investigated using a GST-mediated pull-down assay.

[2] = biological target: T2, CED-4/CED-9 complex; assay: CED-4 displacement assay (pre-assembled CED-4/CED-9 complex on glutathione resin challenged with EGL-1 fragments); format: biochemical, C. elegans; conditions: in vitro, remaining complex visualized on SDS polyacrylamide gel
Source text: EGL-1 induces apoptosis by displacing CED-4 from the CED-4/CED-9 complex. To recapitulate this finding in vitro, a CED-4 displacement assay was designed in which pre-assembled CED-4/CED-9 complex was immobilized on glutathione resin and was then challenged with various EGL-1 fragments. After extensive washing, the remaining CED-4/CED-9 complex was eluted from the resin and visualized on SDS polyacrylamide gel. […] In contrast, most missense mutations at the EGL-1/CED-9 interface weakened the ability of EGL-1 to displace CED-4 from the CED-4/CED-9 complex. […] The in vitro studies are in complete agreement with the structural observation.

[3] = tested on: ced-1 (e1735); egl-1 (n1084 n3082) animals; assay: in vivo cell killing: cell corpses in four-fold transgenic embryos after heat-shock expression of EGL-1 fragments; parameters: species or system C. elegans; conditions: anterior head region of four-fold transgenic embryos; heat-shock promoter expression
Method: In this example, the ability of EGL-1 mutants to disrupt the CED-4/CED-9 complex was tested. […] To examine this scenario, constructs were injected into ced-1 (e1735); egl-1 (n1084 n3082) animals that direct expression of various EGL-1 fragments under the control of the C. elegans heat-shock promoters. Cell corpses were scored in the anterior head region of four-fold transgenic embryos after the heat-shock treatment.

[4] = biological target: T3, CED-4; assay: interaction of CED-9 surface mutants with CED-4; format: binding, C. elegans; conditions: purified CED-9 mutant proteins
Method: This example describes the biochemical analysis of CED-4/CED-9 interactions. To further define the molecular mechanisms by which EGL-1 induces the release of CED-4 from CED-9-mediated sequestration, the identify of surface residues in CED-9 that are important for binding to CED-4 was analyzed. It was hypothesized that for molecular recognition to occur, at least some of the CED-9 residues that are important for binding to CED-4 must be solvent-exposed prior to binding. Therefore, the structure of CED-9 in isolation was examined and a total of 44 amino acids were identified, each with at least 30% of its surface area exposed to solvent. These 44 amino acids were grouped based on primary sequences and 20 CED-9 mutant clones were generated, each containing 1-5 missense mutations that together covering all 44 solvent-exposed residues. All 20 CED-9 proteins were cloned into an expression vector and over-expressed in E. coli and purified to homogeneity.
Next, the abilities of these CED-9 mutants to interact with CED-4 was examined. […] This surface patch may constitute the primary CED-4-binding motif. None of the other 16 mutations, which cover the entirety of the CED-9 surface, affected the CED-4/CED-9.

[5] = listed as EGL-1 double mutant (G55E/F65A)

Molecule	interaction with (binding to) CED-9 [1]	ability to displace CED-4 from the CED-4/CED-9 complex [2]	cell killing (cell corpses induced) [3]	other results
C-terminal half of EGL-1 (amino acids 45-87): C-terminal half of EGL-1, residues 45-87 (SEISSIGYEIGSKLAAMCDDFDAQMMSYSAHASDRSLFHRLLD)	necessary and sufficient; also recorded: formed a stable complex	completely displaced CED-4	necessary and sufficient	
C-terminal half of EGL-1 (residues 45-91): C-terminal half of EGL-1, residues 45-91 (EDSSQFADDSGFFDDSEISSIGYEIGSKLAAMCDDFDAQMMSYSAHA; UniProt O61667 45-91, looked up, fragment)	formed a stable complex			
EGL-1 C-terminal fragment (residues 46-87): EGL-1 C-terminal fragment residues 46-87 expressed in vivo (DSSQFADDSGFFDDSEISSIGYEIGSKLAAMCDDFDAQMMSY; UniProt O61667 46-87, looked up, fragment)			about half the number of cell corpses as the full-length EGL-1	
L58A: EGL-1 mutant, Leu58 substituted by Ala (SEISSIGYEIGSKAAAMCDDFDAQMMSYSAHASDRSLFHRLLD; not fully specified)	did not significantly affect its interaction with CED-9; also recorded: retaining their ability to bind to CED-9	significantly reduced ability		
N-terminal half (residues 1-45) of EGL-1: N-terminal half of EGL-1, residues 1-45 (MSNVFDVQSSVFYNEKNMFYSSSQDFSSCEDSSQFADDSGFFDDS; not fully specified)	did not show detectable binding		did not induce cell death	
mut2: EGL-1 double mutant G55E/F65A (SEISSIGYEIESKLAAMCDDADAQMMSYSAHASDRSLFHRLLD; not fully specified)	failed to bind to CED-9	completely failed to disrupt the CED-4/CED-9 complex	induced no cell killing	interaction with (binding to) CED-9 [1, 5]: failed to bind to CED-9; interaction with (binding to) CED-9 ([1]; listed as G55E and F65A): completely abolished its interaction with CED-9; ability to displace CED-4 from the CED-4/CED-9 complex [2, 5]: failed to bind to CED-9 or to displace CED-4
mut4: EGL-1 quadruple mutant G55E/L58A/F65A/M69A (SEISSIGYEIESKAAAMCDDADAQAMSYSAHASDRSLFHRLLD; also: fused to a dimerising Fc or GST (left off))	failed to bind to CED-9	completely failed to disrupt the CED-4/CED-9 complex		
G55E: EGL-1 mutant, Gly55 substituted by glutamate (protein, UniProt O61667 1-106, looked up, variant G55E) Programmed cell death …: MLMLTFASTSSDLLPMSNVFDVQSSVFYNEKNMFYSSSQDFSSCEDSSQFADDSEFFDDSEISSIGYEIGSKLAAMCDDFDAQMMSYSAHASDRSLFHRLLDFFAF	not sufficient to abolish interaction with CED-9; also recorded: retaining their ability to bind to CED-9	significantly reduced ability	significantly lower level than that of the wild-type EGL-1 protein	interaction with (binding to) CED-9 ([1]; listed as EGL-1 (G55E)): retained its ability to interact with CED-9; ability to displace CED-4 from the CED-4/CED-9 complex ([2]; listed as EGL-1 (G55E)): decreased ability to disrupt the CED-4/CED-9 complex
wild-type EGL-1 protein (residues 1-87): wild-type EGL-1 residues 1-87, lacking the four C-terminal hydrophobic residues (protein) MSNVFDVQSSVFYNEKNMFYSSSQDFSSCEDSSQFADDSGFFDDSEISSIGYEIGSKLAAMCDDFDAQMMSYSAHASDRSLFHRLLD		completely displaced CED-4		
F146N: CED-9 mutant F146N (protein) MTRCTADNSLTNPAYRRRTMATGEMKEFLGIKGTEPTDFGINSDAQDLPSPSRQASTRRMSIGESIDGKINDWEEPRLDIEGFVVDYFTHRIRQNGMEWFGAPGLPCGVQPEHEMMRVMGTIFEKKHAENFETFCEQLLAVPRISNSLYQDVVRTVGNAQTDQCPMSYGRLIGLISFGGFVAAKMMESVELQGQVRNLFVYTSLFIKTRIRNNWKEHNRSWDDFMTLGKQMKEDYERAEAEKVGRRKQNRR				interaction with CED-4 [4]: significantly weakened interactions with CED-4
N158A/A159G/Q160A: CED-9 mutant N158A/A159G/Q160A (protein) MTRCTADNSLTNPAYRRRTMATGEMKEFLGIKGTEPTDFGINSDAQDLPSPSRQASTRRMSIGESIDGKINDWEEPRLDIEGFVVDYFTHRIRQNGMEWFGAPGLPCGVQPEHEMMRVMGTIFEKKHAENFETFCEQLLAVPRISFSLYQDVVRTVGAGATDQCPMSYGRLIGLISFGGFVAAKMMESVELQGQVRNLFVYTSLFIKTRIRNNWKEHNRSWDDFMTLGKQMKEDYERAEAEKVGRRKQNRR				interaction with CED-4 [4]: significantly weakened interactions with CED-4
R211E/N212G: CED-9 mutant R211E/N212G (protein) MTRCTADNSLTNPAYRRRTMATGEMKEFLGIKGTEPTDFGINSDAQDLPSPSRQASTRRMSIGESIDGKINDWEEPRLDIEGFVVDYFTHRIRQNGMEWFGAPGLPCGVQPEHEMMRVMGTIFEKKHAENFETFCEQLLAVPRISFSLYQDVVRTVGNAQTDQCPMSYGRLIGLISFGGFVAAKMMESVELQGQVRNLFVYTSLFIKTRIEGNWKEHNRSWDDFMTLGKQMKEDYERAEAEKVGRRKQNRR				interaction with CED-4 [4]: significantly weakened interactions with CED-4
